For the experiment, the target named is Mycobacteria modified Low Density Lipoprotein (MtLDL) (human) (UniProt P04114). Description: sandwich ELISA, value told of the pair No. 6 with No. 8. A general note: ELISA stands for enzyme-linked immunosorbent assay.

B1: bivalent Fab No. 6 (HCVR SEQ ID NO: 3 / LCVR SEQ ID NO: 4) (Fab, V domains shown)
VH: EVQLLESGGGLVQPGGSLRLSCAASGFTFRGYYMSWVRQAPGKGLEWVSSISGFSSNTYYADSVKGRFTISRDNSKNTLYLQMNSLRAEDTAVYYCARVRYLAYAFDYWGQGTLVTVSS
VL: DIELTQPPSVSVSPGQTASITCSGDSLPDKRAYWYQQKPGQAPVLVIYGDSHRPSGIPERFSGSNSGNTATLTISGTQAEDEADYYCSSWGSRTWVFGGGTKLTVLG
On to B1, for which the specific signal, fold above native LDL background was more than 4 fold.

B2: bivalent Fab No. 8 (HCVR SEQ ID NO: 5 / LCVR SEQ ID NO: 6) (Fab, V domains shown)
VH: QVQLVQSGAEVKKPGSSVKVSCKASGGTFSGYYISWVRQAPGQGLEWMGGIIPISGRANYAQKFQGRVTITADESTSTAYMELSSLRSEDTAVYYCARSRSYYHFDLWGQGTLVTVSS
VL: DIALTQPASVSGSPGQSITISCTGTSSDVGRYNSVSWYQQHPGKAPKLMIYRVSKRPSGVSNRFSGSKSGNTASLTISGLQAEDEADYYCQSWASLSNVVFGGGTKLTVLG
Molecule B2 displayed a specific signal, fold above native LDL background of more than 4 fold.
